Experimental findings from patent US20070265206A1 (PALATIN TECHNOLOGIES, published 2007) are described below.

By Ki is commonly meant a dissociation constant, usually derived from enzyme kinetics or from competition with a known ligand.

Bridge positions count the residues as written; N and C are the ends.

In assay [1] the target is T1, human natriuretic peptide receptor A (NPRA) (human, UniProt P16066 33-1061).
T1 sequence (looked up): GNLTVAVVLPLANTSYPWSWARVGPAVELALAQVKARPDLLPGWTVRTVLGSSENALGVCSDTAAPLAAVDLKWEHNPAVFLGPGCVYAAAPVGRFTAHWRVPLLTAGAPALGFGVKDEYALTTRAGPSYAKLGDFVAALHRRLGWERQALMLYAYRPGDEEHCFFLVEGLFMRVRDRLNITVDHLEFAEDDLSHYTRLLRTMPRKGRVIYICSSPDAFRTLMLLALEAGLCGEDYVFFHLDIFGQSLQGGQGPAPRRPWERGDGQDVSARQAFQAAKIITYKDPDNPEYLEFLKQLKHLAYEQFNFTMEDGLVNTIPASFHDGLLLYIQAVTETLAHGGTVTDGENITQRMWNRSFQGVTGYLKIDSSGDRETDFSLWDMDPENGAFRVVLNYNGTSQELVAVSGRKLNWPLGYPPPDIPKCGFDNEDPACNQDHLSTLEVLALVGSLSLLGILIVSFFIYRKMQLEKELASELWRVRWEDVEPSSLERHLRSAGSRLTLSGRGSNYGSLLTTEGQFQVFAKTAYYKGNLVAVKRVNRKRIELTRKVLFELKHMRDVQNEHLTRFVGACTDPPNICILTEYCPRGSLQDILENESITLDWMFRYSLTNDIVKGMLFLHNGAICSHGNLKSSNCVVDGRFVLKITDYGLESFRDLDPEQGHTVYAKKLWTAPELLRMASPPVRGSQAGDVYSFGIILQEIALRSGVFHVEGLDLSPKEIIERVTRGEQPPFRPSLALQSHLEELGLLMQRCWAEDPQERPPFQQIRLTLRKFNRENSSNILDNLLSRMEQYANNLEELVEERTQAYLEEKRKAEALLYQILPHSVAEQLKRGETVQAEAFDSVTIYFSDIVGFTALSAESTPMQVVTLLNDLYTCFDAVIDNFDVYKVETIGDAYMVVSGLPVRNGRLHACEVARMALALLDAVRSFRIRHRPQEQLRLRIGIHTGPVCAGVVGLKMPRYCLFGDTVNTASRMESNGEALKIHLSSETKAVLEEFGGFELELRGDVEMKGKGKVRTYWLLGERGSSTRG
Put plainly: cell-based or functional assay.

Assay [2] addresses T1, human natriuretic peptide receptor A …. Briefly: competitive inhibition of [125I]-ANP binding to HEK-hNPRA membrane homogenates. As to the method: Competitive binding assay. A competitive inhibition binding assay was performed using crude membrane homogenates prepared from HEK-hNPRA cells. To prepare membrane homogenates, cells were rinsed with phosphate-buffered saline and incubated for 15 minutes at 4° C. in hypotonic lysis buffer (10 mM Tris, pH 7.4+5 mM EDTA). Cells were transferred from plates to polypropylene tubes and homogenized. Homogenates were centrifuged at 25,000×g for 20 minutes. Pellets were resuspended in buffer consisting of 50 mM Tris (pH 7.4) and 1 mM EDTA, homogenized and centrifuged at 25,000×g for 20 minutes. […] On the day of an assay, homogenates were thawed and homogenized. […] Assays were stopped by addition of cold wash buffer (phosphate-buffered saline) followed by filtration using a vacuum manifold. Bound radioactivity was determined using a gamma counter. […] Data were analyzed using GraphPad Prism® curve-fitting software.

B1: mini-ANP, H-Met-cyclo(Cys-His-Phe-Gly-Gly-Arg-Met-Asp-Arg-Ile-Ser-Cys)-Tyr-Arg-NH2 (peptide)
peptide: H-MCHFGGRMDRISCYR-NH2
modifications: disulfide 2-13
SMILES: CC[C@H](C)[C@@H]1NC(=O)[C@H](CCCNC(=N)N)NC(=O)[C@H](CC(=O)O)NC(=O)[C@H](CCSC)NC(=O)[C@H](CCCNC(=N)N)NC(=O)CNC(=O)CNC(=O)[C@H](Cc2ccccc2)NC(=O)[C@H](Cc2c[nH]cn2)NC(=O)[C@@H](NC(=O)[C@@H](N)CCSC)CSSC[C@@H](C(=O)N[C@@H](Cc2ccc(O)cc2)C(=O)N[C@@H](CCCNC(=N)N)C(N)=O)NC(=O)[C@H](CO)NC1=O
notes: also called 15-mer disulfide cyclic peptide
On to B1, for which, in assay [1], the “EC50 (accumulation of intracellular cGMP)” value worked out at 3.3 nM. The Ki in assay [2] amounted to 0.6 nM.
